What was measured:
[1] = tested on: HeLa Kyoto; assay: melting temperature (median over replicates), in situ; higher = more thermally stable
[2] = tested on: HeLa Kyoto; assay: solubility change mitosis vs G1/S (difference of NP-40 vs SDS log2 ratios) (log2 ratio difference); higher = more soluble in mitosis
[3] = tested on: HeLa Kyoto; assay: solubility in G1/S (NP-40 vs SDS abundance) (log2 ratio); higher = more soluble; details: cell cycle stage: G1/S
[4] = tested on: HeLa Kyoto; assay: thermal stability score vs G1/S (z-score of summed log2 fold changes over temperatures); higher = more thermally stable than in G1/S
[5] = cell cycle stage: early G1 (4.5 h after nocodazole release)
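Wherever melting temperature (median over replicates), in situ is given: HeLa Kyoto cells synchronized by double thymidine or nocodazole block, proteins quantified by TMT10plex mass spectrometry, three independent biological replicates.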
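Wherever solubility change mitosis vs G1/S (difference of NP-40 vs SDS log2 ratios) is given: synchronized HeLa Kyoto cells (double thymidine block for G1/S, nocodazole release for mitosis), protein amounts in NP-40 versus SDS lysates quantified by mass spectrometry, three biological replicates.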
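Wherever solubility in G1/S (NP-40 vs SDS abundance) is given: HeLa Kyoto cells arrested at G1/S by double thymidine block, proteins quantified by TMT10plex mass spectrometry in mild NP-40 versus SDS extracts, three biological replicates.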
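Wherever thermal stability score vs G1/S (z-score of summed log2 fold changes over temperatures) is given: synchronized HeLa Kyoto cells, proteins quantified by TMT10plex mass spectrometry, three biological replicates, mitosis taken 0.5 h after nocodazole release, G1/S directly after double thymidine block.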

Sequence | melting temperature ([1]; cell cycle stage: G1/S) [°C] | melting temperature ([1]; cell cycle stage: mitosis) [°C] | solubility change mitosis (log2) [2] | solubility in G1/S (log2) [3] | thermal stability score [4, 5] | thermal stability score ([4]; cell cycle stage: mitosis)
MAQAKINAKANEGRFCRSSSMADRSSRLLESLDQLELRVEALREAATAVEQEKEILLEMIHSIQNSQDMRQISDGEREELNLTANRLMGRTLTVEVSVETIRNPQQQESLKHATRIIDEVVNKFLDDLGNAKSHLMSLYSACSSEVPHGPVDQKFQSIVIGCALEDQKKIKRRLETLLRNIENSDKAIKLLEHSKGAGSKTLQQNAESRFN [BAG2] | 50.9 | 50.9 | 0.474 | 0.345 | -2.02 | -3.48
MGALVIRGIRNFNLENRAEREISKMKPSVAPRHPSTNSLLREQISLYPEVKGEIARKDEKLLSFLKDVYVDSKDPVSSLQVKAAETCQEPKEFRLPKDHHFDMINIKSIPKGKISIVEALTLLNNHKLFPETWTAEKIMQEYQLEQKDVNSLLKYFVTFEVEIFPPEDKKAIRSK [NDUFAF4] | 50.4 | 54.2 | -0.0449 | 0.314 | -2.2 | -2.98
MSGGSADYNREHGGPEGMDPDGVIESNWNEIVDNFDDMNLKESLLRGIYAYGFEKPSAIQQRAIIPCIKGYDVIAQAQSGTGKTATFAISILQQLEIEFKETQALVLAPTRELAQQIQKVILALGDYMGATCHACIGGTNVRNEMQKLQAEAPHIVVGTPGRVFDMLNRRYLSPKWIKMFVLDEADEMLSRGFKDQIYEIFQKLNTSIQVVLLSATMPTDVLEVTKKFMRDPIRILVKKEELTLEGIKQFYINVEREEWKLDTLCDLYETLTITQAVIFLNTRRKVDWLTEKMHARDFTVSALHGDMDQKERDVIMREFRSGSSRVLITTDLLARGIDVQQVSLVINYDLPTNRENYIHRIGRGGRFGRKGVAINFVTEEDKRILRDIETFYNTTVEEMPMNVADLI [EIF4A2] | 52.1 | 51.5 | -0.2 | 0.106 | -0.202 | -1.09
MAAAAGMLLLGLLQAGGSVLGQAMEKVTGGNLLSMLLIACAFTLSLVYLIRLAAGHLVQLPAGVKSPPYIFSPIPFLGHAIAFGKSPIEFLENAYEKYGPVFSFTMVGKTFTYLLGSDAAALLFNSKNEDLNAEDVYSRLTTPVFGKGVAYDVPNPVFLEQKKMLKSGLNIAHFKQHVSIIEKETKEYFESWGESGEKNVFEALSELIILTASHCLHGKEIRSQLNEKVAQLYADLDGGFSHAAWLLPGWLPLPSFRRRDRAHREIKDIFYKAIQKRRQSQEKIDDILQTLLDATYKDGRPLTDDEVAGMLIGLLLAGQHTSSTTSAWMGFFLARDKTLQKKCYLEQKTVCGENLPPLTYDQLKDLNLLDRCIKETLRLRPPIMIMMRMARTPQTVAGYTIPPGHQVCVSPTVNQRLKDSWVERLDFNPDRYLQDNPASGEKFAYVPFGAGRHRCIGENFAYVQIKTIWSTMLRLYEFDLIDGYFPTVNYTTMIHTPENPVIRYKRRSK [CYP51A1] | 48.4 | 50 | 0.0784 | -0.38 | 2.55 | 3.17
MGDSHVDTSSTVSEAVAEEVSLFSMTDMILFSLIVGLLTYWFLFRKKKEEVPEFTKIQTLTSSVRESSFVEKMKKTGRNIIVFYGSQTGTAEEFANRLSKDAHRYGMRGMSADPEEYDLADLSSLPEIDNALVVFCMATYGEGDPTDNAQDFYDWLQETDVDLSGVKFAVFGLGNKTYEHFNAMGKYVDKRLEQLGAQRIFELGLGDDDGNLEEDFITWREQFWPAVCEHFGVEATGEESSIRQYELVVHTDIDAAKVYMGEMGRLKSYENQKPPFDAKNPFLAAVTTNRKLNQGTERHLMHLELDISDSKIRYESGDHVAVYPANDSALVNQLGKILGADLDVVMSLNNLDEESNKKHPFPCPTSYRTALTYYLDITNPPRTNVLYELAQYASEPSEQELLRKMASSSGEGKELYLSWVVEARRHILAILQDCPSLRPPIDHLCELLPRLQARYYSIASSSKVHPNSVHICAVVVEYETKAGRINKGVATNWLRAKEPAGENGGRALVPMFVRKSQFRLPFKATTPVIMVGPGTGVAPFIGFIQERAWLRQQGKEVGETLLYYGCRRSDEDYLYREELAQFHRDGALTQLNVAFSREQSHKVYVQHLLKQDREHLWKLIEGGAHIYVCGDARNMARDVQNTFYDIVAELGAMEHAQAVDYIKKLMTKGRYSLDVWS [POR] | 51.6 | 51.1 | -0.125 | 0.0892 | 4.17 | 5.83

— the supplement of paper PMC5998384
